The target of the assay is Gα15 (mammalian).

Regarding “Anopheles gambiae odorant receptor 1 (from UniProt Q8WTE7)”, the clamp current on perfusion with 4-methyl phenol, voltage clamp of Xenopus oocytes expressing AgOR1/Gα15 was 20 nA.

The record behind these values is patent US20050153368A1.
